# According to the supplement of paper PMC6755084:
# B1: F1*; the commonest letter at each place (parent)
# chain: GAGACCGCAACTGAAAAGTTGTTATCACTTGTCGTAAGACACTTTGGATGGGTTGAAGTTCTGCACGTAGAAGCAAAAGGC
# Variants of: B1
# Assay: fraction ligated after 30 min (ligated reads / total reads); higher = more ligase activity
# Conditions: with F1*sub RNA substrate (template-directed ligation), 42 °C
# How it was run: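 Ligase ribozyme variants were made from oligo-pool templates by PCR amplification, T7 transcription and gel purification. After gel separation, ligated and unligated bands were reverse transcribed with barcoded primers and sequenced on a MiSeq, with core bases filtered at quality ≥20. The fraction ligated for each variant was the number of ligated reads divided by total reads.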
row,Variant,fraction ligated
1,C28A C42T,0.823
2,G46C T49G,0.407
3,A36T A41T,0.819
4,T23A G31T,0.789
5,C28G A56T,0.767
6,T32A A37C,0.849
7,C26G G46T,0.417
8,A39C T49G,0.737
9,C26G G34T,0.718
10,A36T T49A,0.797
11,T35G G38A,0.847
12,A27C C33A,0.827
13,T23C A57G,0.851
14,C33G G47C,0.108
15,T45A G50T,0.0542
16,C28G G47T,0.591
17,T25G A36G,0.795
18,T25G A36C,0.77
19,C42A T45C,0.778
20,T29G T45A,0.673
21,T29G T45G,0.267
22,A39G A48C,0.766
23,A24G T25C,0.765
24,C28T G47C,0.252

row,Variant,fraction ligated
1,C33T G46A,0.831
2,G46A A56T,0.645
3,C42A T43A,0.82
4,A27T A48T,0.787
5,T25G T49G,0.779
6,T29C A57G,0.855
7,T23C T29A,0.82
8,T23A T25C,0.762
9,A24G C40G,0.802
10,G31C G34A,0.78
11,G46A A57C,0.793
12,G31A C33A,0.833
13,C26G T43G,0.479
14,G34C T44A,0.816
15,G31A A36G,0.595
16,C42T T49G,0.782
17,T32A C33T,0.847
18,A48C T49A,0.555
19,A39G G47C,0.343
20,T25G T29A,0.773
21,G50A G55A,0.178
22,T30G T43A,0.859
23,A24C C28A,0.727
24,G55A A56T A57C,0.0139

row,Variant,fraction ligated
1,T29A A56C,0.799
2,G52T,0.695
3,T25C C33A,0.77
4,A24G A48T,0.0442
5,A24G A48G,0.762
6,G50C G55C,0.0221
7,G38C G55A,0.826
8,A24G,0.777
9,T30C A36G,0.823
10,T25G G31C,0.0618
11,C28A A48T,0.424
12,G38A A57C,0.825
13,C26A T29G,0.784
14,C33G A41T,0.789
15,T23G C42G,0.829
16,G31A T45C,0.0954
17,G31A T45A,0.395
18,C26G C42A,0.767
19,A24C G38T,0.468
20,A37G G55C,0.833
21,A27C A48C,0.748
22,A24G G34T,0.729
23,A27G T29C,0.788
24,T43A G55T,0.839

row,Variant,fraction ligated
1,T25C G31T,0.546
2,T30C T32C,0.726
3,A39C A48T,0.465
4,G34C G47C,0.365
5,C42G G47T,0.68
6,G31A T32A,0.809
7,G31A T32G,0.837
8,T23A C28G,0.804
9,A24T G46T,0.2
10,A24T G46C,0.313
11,C28T A36T,0.799
12,A37T G47A,0.806
13,C28G A37T,0.808
14,C28G A37G,0.809
15,G38A A48T,0.252
16,G31C T45A,0.492
17,T44G G55A,0.842
18,A27G A56T,0.769
19,T30G T32C,0.784
20,A41T A48T,0.345
21,G34T A41C,0.755
22,T29G G34A,0.824
23,T23A C26G,0.116
24,T30A A56T,0.81

row,Variant,fraction ligated
1,C28A T45A,0.698
2,A37C G47T,0.406
3,A37C G47C,0.444
4,T30A G50C,0.111
5,C40G G47T,0.438
6,C28A A57G,0.8
7,G38C A39C,0.752
8,A27C T30A,0.783
9,G31T A48C,0.292
10,T29G A41T,0.833
11,C26T G46A,0.835
12,A27C G55A,0.805
13,A27C G55C,0.355
14,G38T T43A,0.808
15,T23G G50A,0.633
16,A24G A56T,0.0729
17,T25G A56G,0.0638
18,T35C G55C,0.796
19,T35G T43G,0.801
20,T30C C40A,0.828
21,G34A G46A,0.807
22,A48G T49C,0.504
23,G46T G55T,0.482
24,C33A G47A,0.745

row,Variant,fraction ligated
1,G34C G38T,0.811
2,C28T A37T,0.81
3,C28T C40G,0.81
4,T29A G34A,0.852
5,A24C C33G,0.4
6,T45A G47A,0.478
7,T23G T30G,0.8
8,T44G T49A,0.584
9,T43G T49A,0.76
10,G31C C40T,0.791
11,T35C A48T,0.792
12,A27G T45C,0.357
13,C28G G50A,0.224
14,A39G G55T,0.819
15,C40T A41T,0.822
16,T49C G55T,0.091
17,T23A T30C,0.793
18,A36C T49C,0.712
19,G47A G55C,0.422
20,G47A G55A,0.775
21,T32A T45C,0.358
22,C28G T32G,0.783
23,G55C A56T,0.737
24,A36G T44G,0.856

row,Variant,fraction ligated
1,A27T A39T,0.783
2,A27T A39C,0.782
3,C28T G34A,0.814
4,C28T G34C,0.79
5,A48G G55C,0.108
6,C26T C33G,0.819
7,A36C A56G,0.794
8,A41T T45A,0.741
9,T30G A56C,0.786
10,T25C G50T,0.639
11,T29A A36G,0.853
12,T29G A56T,0.793
13,A39T C42G,0.817
14,C40A G47A,0.769
15,T25G G47T,0.102
16,C33A A56G,0.812
17,T30G A37G,0.852
18,A27C G50T,0.37
19,T25G A41T,0.662
20,G31C T49A,0.0574
21,A24T C40T,0.769
22,C40A A57G,0.843
23,C42T G47C,0.11
